# Data published in patent US20230048360A1 (EUREKA THERAPEUTICS, published 2023).
# B1: #39 GPC3A L2K (bispecific antibody)
# tandem di-scFv: SYVLTQPPSVSVAPGKTARITCGGNNIGSKSVHWYQQKPGQAPVLVIYYDSDRPSGIPERFSGSNSGNTATLTISRVEAGDEADYYCQVWDSSSDHWVFGGGTKLTVLGSRGGGGSGGGGSGGGGSLEMAQVQLVQSGGGLVHPGGSLRLSCAGSGFTFSSYAMHWVRQAPGKGLEWVSAIGTGGGTYYADSVKGRFTISRDNAKNSLYLQMNSLRAEDTAVYYCARYGRKSIDAWGQGTLVTVSSTSGGGGSDVQLVQSGAEVKKPGASVKVSCKASGYTFTRYTMHWVRQAPGQGLEWIGYINPSRGYTNYADSVKGRFTITTDKSTSTAYMELSSLRSEDTATYYCARYYDDHYCLDYWGQGTTVTVSSGEGTSTGSGGSGGSGGADDIVLTQSPATLSLSPGERATLSCRASQSVSYMNWYQQKPGKAPKRWIYDTSKVASGVPARFSGSGSGTDYSLTINSLEAEDAATYYCQQWSSNPLTFGGGTKVEIKHHHHHH
# notes: also called GPC3A-39 L2K
# B2: GPC3A-46 L2K (bispecific antibody)
# chain: QAVLTQPPSVSGTPGQRVTISCSGSSSNFGSNTVHWYQQVPGTAPKLLIFSNTQRPSEIPDRFSGSKSGTSASLAISGLQSEDEADYYCAAWDDSLTGVVFGGGTKLTVLGSRGGGGSGGGGSGGGGSLEMAQVQLVQSGAEVKKPGASVTVSCKASGYRFSNYGVSWVRQAPGQGLEWMGWISGSNGNTNYAQKFLGRVTMTTDTSTTTAYMELSSLRSDDTAVYYCARGNRRYYSPIIDPWGQGTLVTVSSTSGGGGSDVQLVQSGAEVKKPGASVKVSCKASGYTFTRYTMHWVRQAPGQGLEWIGYINPSRGYTNYADSVKGRFTITTDKSTSTAYMELSSLRSEDTATYYCARYYDDHYCLDYWGQGTTVTVSSGEGTSTGSGGSGGSGGADDIVLTQSPATLSLSPGERATLSCRASQSVSYMNWYQQKPGKAPKRWIYDTSKVASGVPARFSGSGSGTDYSLTINSLEAEDAATYYCQQWSSNPLTFGGGTKVEIKHHHHHH
# B3: #51 GPC3A L2K (bispecific antibody)
# tandem di-scFv: QAVLTQPSSASGAPGQRVTISCTGGSSNIGAGYDVHWYQQLPGTAPKLLIYGNSNRPSGVPDRFSGSKSGTSASLAITGLQAEDEADYYCQSYDSSLSGYVFGTGTKVTVLGSRGGGGSGGGGSGGGGSLEMAQVQLVQSGAEVKKPGSSVKVSCKASGGAFSSYAISWVRQAPGQGLEWMGGIIPIFGTANYAQKFQGRVTITADESTSTAYMELSSLRSEDTAVYYCARMLYLSGRYYWDSWGQGTLVTVSSTSGGGGSDVQLVQSGAEVKKPGASVKVSCKASGYTFTRYTMHWVRQAPGQGLEWIGYINPSRGYTNYADSVKGRFTITTDKSTSTAYMELSSLRSEDTATYYCARYYDDHYCLDYWGQGTTVTVSSGEGTSTGSGGSGGSGGADDIVLTQSPATLSLSPGERATLSCRASQSVSYMNWYQQKPGKAPKRWIYDTSKVASGVPARFSGSGSGTDYSLTINSLEAEDAATYYCQQWSSNPLTFGGGTKVEIKHHHHHH
# notes: also called GPC3A-51 L2K
# B4: GPC3A-34 L2K (bispecific antibody)
# chain: QPVLTQPPSASGTPGQRVTISCSGSSSNIGSNNVIWYQQLPGAAPKLLIYSNHRRPSGVPDRFSGSRSGTSASLAISGLQSEDEADYYCAAWDDSLDGYLFGTGTKVTVLGSRGGGGSGGGGSGGGGSLEMAQVQLQQWGAGLLKPSETLSLTCAVYGGSFSGYYWSWIRQPPGKGLEWIGEINHSGSTNYNPSLKSRVTISVDTSKNQFSLELSSVTAADTAVYYCARGYGGRFDYWGQGTLVTVSSTSGGGGSDVQLVQSGAEVKKPGASVKVSCKASGYTFTRYTMHWVRQAPGQGLEWIGYINPSRGYTNYADSVKGRFTITTDKSTSTAYMELSSLRSEDTATYYCARYYDDHYCLDYWGQGTTVTVSSGEGTSTGSGGSGGSGGADDIVLTQSPATLSLSPGERATLSCRASQSVSYMNWYQQKPGKAPKRWIYDTSKVASGVPARFSGSGSGTDYSLTINSLEAEDAATYYCQQWSSNPLTFGGGTKVEIKHHHHHH
# notes: also called anti-GPC3xCD3 di-scFv derived from GPC3A-34
# B5: GPC3A-37 L2K (bispecific antibody)
# chain: QSVLTQPPSVSAAPGQRVTISCSGTRSNIGSDYVSWYQHLPGTAPKLLVYGDNLRPSGIPDRFSASKSGTSATLGITGLQTGDEADYYCGTWDYTLNGVVFGGGTKLTVLGSRGGGGSGGGGSGGGGSLEMAQVQLVESGGGLVQPGGSLRLSCAASGFTFSSYAMSWVRQAPGKGLEWVSVIYSGGSSTYYADSVKGRFTISRDNSKNTLYLQMNSLRAEDTAVYYCARTSYLNHGDYWGQGTLVTVSSTSGGGGSDVQLVQSGAEVKKPGASVKVSCKASGYTFTRYTMHWVRQAPGQGLEWIGYINPSRGYTNYADSVKGRFTITTDKSTSTAYMELSSLRSEDTATYYCARYYDDHYCLDYWGQGTTVTVSSGEGTSTGSGGSGGSGGADDIVLTQSPATLSLSPGERATLSCRASQSVSYMNWYQQKPGKAPKRWIYDTSKVASGVPARFSGSGSGTDYSLTINSLEAEDAATYYCQQWSSNPLTFGGGTKVEIKHHHHHH
# notes: also called anti-CD3/anti-GPC3 BsAb
# B6: GPC3A-45 L2K (bispecific antibody)
# chain: QSVLTQPPSVSGTPGQRVIISCPGSTSNIGTNTVNWYQQFPGTAPKLLIYSNNQRPSGVPDRFSGSKSGTSASLAISGLQSEDEADYYCAAWDDSLNGVVFGGGTKLTVLGSRGGGGSGGGGSGGGGSLEMAQMQLVQSGGGLVKPGGSLRLSCAASGFTFSDYYMSWIRQAPGKGLEWVSYISSSGSTIYYADSVKGRFTISRDNAKNSLYLQMNSLRAEDTAVYYCARASDLYGDWGQGTLVTVSSTSGGGGSDVQLVQSGAEVKKPGASVKVSCKASGYTFTRYTMHWVRQAPGQGLEWIGYINPSRGYTNYADSVKGRFTITTDKSTSTAYMELSSLRSEDTATYYCARYYDDHYCLDYWGQGTTVTVSSGEGTSTGSGGSGGSGGADDIVLTQSPATLSLSPGERATLSCRASQSVSYMNWYQQKPGKAPKRWIYDTSKVASGVPARFSGSGSGTDYSLTINSLEAEDAATYYCQQWSSNPLTFGGGTKVEIKHHHHHH
# B7: GPC3A-55 L2K (bispecific antibody)
# chain: QPVLTQPPSVSVAPGKTARITCGGNNIGSKSVHWYQQKPGQAPVLVIYYDSDRPSGIPERFSGSNSGNTATLTISRVEAGDEADYYCQVWDSSSDHYVFGTGTKVTVLGSRGGGGSGGGGSGGGGSLEMAQVQLVQSGAEVKKPGASVKVSCKASGYTFTSYYMHWVRQAPGQGLEWMGIINPSGGSTSYAQKFQGRVTMTRDTSTSTVYMELSSLRSEDTAVYYCARWHGGPYDYWGQGTLVTVSSTSGGGGSDVQLVQSGAEVKKPGASVKVSCKASGYTFTRYTMHWVRQAPGQGLEWIGYINPSRGYTNYADSVKGRFTITTDKSTSTAYMELSSLRSEDTATYYCARYYDDHYCLDYWGQGTTVTVSSGEGTSTGSGGSGGSGGADDIVLTQSPATLSLSPGERATLSCRASQSVSYMNWYQQKPGKAPKRWIYDTSKVASGVPARFSGSGSGTDYSLTINSLEAEDAATYYCQQWSSNPLTFGGGTKVEIKHHHHHH
# B8: anti-GPC3 mIgG1 clone A-39 (antibody, V domains shown)
# VH: QVQLVQSGGGLVHPGGSLRLSCAGSGFTFSSYAMHWVRQAPGKGLEWVSAIGTGGGTYYADSVKGRFTISRDNAKNSLYLQMNSLRAEDTAVYYCARYGRKSIDAWGQGTLVTVSS
# VL: SYVLTQPPSVSVAPGKTARITCGGNNIGSKSVHWYQQKPGQAPVLVIYYDSDRPSGIPERFSGSNSGNTATLTISRVEAGDEADYYCQVWDSSSDHWVFGGGTKLTVLG
# notes: also called anti-GPC3 mIgG1 A-39
# B9: anti-GPC3 mIgG1 clone A-46 (antibody, V domains shown)
# VH: QVQLVQSGAEVKKPGASVTVSCKASGYRFSNYGVSWVRQAPGQGLEWMGWISGSNGNTNYAQKFLGRVTMTTDTSTTTAYMELSSLRSDDTAVYYCARGNRRYYSPIIDPWGQGTLVTVSS
# VL: QAVLTQPPSVSGTPGQRVTISCSGSSSNFGSNTVHWYQQVPGTAPKLLIFSNTQRPSEIPDRFSGSKSGTSASLAISGLQSEDEADYYCAAWDDSLTGVVFGGGTKLTVLG
# notes: Fused to mouse IgG1 heavy chain and light chain constant regions; also called GPC3A mIgG1 clone A-46
# B10: anti-GPC3 mIgG1 clone A-56 (antibody, V domains shown)
# VH: QVQLQQSGAEVKKFGASVKVSCKASGYSFNDYYIHWVRQAPGQGLEWMGWINPNNGDTKYEKKWQGRVTMTRDTSITTAYMELSSLRSDDTAVYYCARFSTHNWWWPTYDYWGQGTLVTVSS
# VL: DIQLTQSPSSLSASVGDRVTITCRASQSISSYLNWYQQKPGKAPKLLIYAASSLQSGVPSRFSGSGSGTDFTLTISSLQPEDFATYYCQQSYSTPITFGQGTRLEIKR
# notes: Fused to mouse IgG1 heavy chain and light chain constant regions
# B11: anti-GPC3 mIgG1 clone A-58 (antibody, V domains shown)
# VH: QVQLVQSGADVRKPGASVKVSCKASGYTFASHGISWVRQAPGQGLEWLGWISPYTGNTNYAQKFQGRVTMATDTSTSTAYMELRSLRSDDTAIYYCARGKRTLASCFDYWGQGTLVTVSS
# VL: QSVLTQPPSVSVAPGKTARITCGGNNIGSKSVHWYQQKPGQAPVLVVYDDSDRPSGIPERFSGSNSGNTATLTISRVEAGDEADYYCQVWDSSSDHVFGTGTKVTVLG
# notes: Fused to mouse IgG1 heavy chain and light chain constant regions; also called GPC3A mIgG1 clone A-58
# Biological target: T1, full-length human GPC3 over-expressed on SK-Hep1-GPC3 cells (human, UniProt P51654 25-560)
# T1 construct: also called GPC3 over-expressing SK-Hep1 cells
# Assay: FACS, GPC3A L2K on SK-Hep1-GPC3 cells, APC anti-His; same L2K on GPC3-negative SK-Hep1 median 61.6
# Procedure: Cells were then washed once with PBS. APC-conjugated anti-His tag mouse antibody (R&D Systems) was added to the washed cells in a volume of 100 μl, at 20-fold dilution of 5% FBS in PBS and 0.05% NAN₃ and incubated for 1 hour at 4° C. in the dark. The cells were then washed twice with PBS. The cells were fixed in 3-fold dilution of fixation buffer (BioLegend) in PBS in a volume of 150 μl.
row,Median : APC-A,Binder
1,445,B1
2,657,B2
3,677,B3

# Biological target: T2, cell surface-bound human GPC3 on GPC3+ HepG2 cells (human, UniProt P51654 25-560, GPI anchor and heparin sulfate side chains, as the filing describes native GPC3)
# T2 construct: Endogenous GPC3 of the HepG2 line; also called Glypican 3; native GPC3
# Assay: apparent Kd from FACS on GPC3+ HepG2 cells
# Procedure: (§1) APC-conjugated anti-His tag mouse antibody (R&D Systems) was added in a volume of 100 μl, a 20-fold dilution of 5% FBS in PBS and 0.05% NaN₃ and incubated for 1 hour at 4° C. in the dark, then washed twice with PBS. The cells were fixed in 3-fold dilution of fixation buffer (BioLegend) in PBS in a volume of 150 μl. As a separate control, HepG2 cells were also incubated with APC-conjugated anti-His tag mouse antibody (R&D Systems) in the absence of any L2K bispecific antibody.
row,Kd,Binder
1,1 nM,B2
2,2 nM,B4
3,0.92 nM,B5
4,2.4 nM,B6
5,0.86 nM,B7

# Biological target: T2, cell surface-bound human GPC3 on GPC3+ …
# Assay: FACS titration on GPC3+ HepG2 cells, anti-His detection
# Procedure: as §1
row,EC50,Binder
1,0.05 µg/mL,B2
2,0.11 µg/mL,B4
3,0.048 µg/mL,B5
4,0.12 µg/mL,B6
5,0.045 µg/mL,B7

# Biological target: T2, cell surface-bound human GPC3 on GPC3+ …
# Assay: FACS, mIgG1 on GPC3-positive HepG2 cells, PE anti-mouse IgG (H and L); control mIgG1 median 93.8
row,Median : PE-A,Binder
1,6380,B8
2,9860,B9
3,5630,B10
4,8030,B11

# Biological target: T2, cell surface-bound human GPC3 on GPC3+ …
# Assay: FACS on GPC3+ HepG2 cells, labelled on the sheet GPC3A L2K against control L2K; control L2K median 93.8; axis PE-A
# Procedure: APC-conjugated anti-His tag mouse antibody (R&D Systems) was added in a volume of 100 μl, a 20-fold dilution of 5% FBS in PBS and 0.05% NaN₃ and incubated for 1 hour at 4° C. in the dark, then washed twice with PBS. The cells were fixed in 3-fold dilution of fixation buffer (BioLegend) in PBS in a volume of 150 μl.
row,Median : PE-A,Binder
1,6380,B1
2,9860,B2
3,12200,B3

# Biological target: T3, biotinylated recombinant human GPC3(560) (human, biotin on the C-terminal BirA substrate peptide ; Biotin on a lysine of the C-terminal BirA substrate peptide, which is not in the letters.)
# T3 construct: Made in E. coli BL21 (pET-27b) from inclusion bodies and biotinylated with BirA; also called bt-GPC3(560); soluble bt-GPC3(560) protein
# Assay: SPR, Biacore X100, single-cycle kinetics, bt-GPC3(560) captured on chip, 1:1 model
# Procedure: All of the proteins used in the assay were diluted in HBS-E buffer prior to use. Briefly, 5-10 μg/ml of bt-GPC3₍₅₆₀₎ was immobilized onto a sensor chip pre-functionalized with CAPture Reagent and injected onto the flow cell. Affinity of the L2K bispecific antibodies for immobilized antigen was measured by injection of the various bispecific antibodies at 0.3-5 mg/ml with a 90 second association phase followed by a 90 second dissociation phase at a flow rate of 30 μl/min. At the end of each run, the surface of the sensor chip was regenerated using the reagents provided in the Biotin CAPture kit. Binding constants were determined by nonlinear regression analysis using a 1:1 binding model (BIACORE™ X-100 evaluation software, FIGS. 15A and 15B). The association-on-rate-kₒₙ, affinity constant-kₐ, dissociation constant-kd, and equilibrium dissociation constant-Kd were then calculated for each L2K clone (Table 14).
Kd,koff,kon,Binder
3.2 nM,0.00129 s⁻¹,399000 M⁻¹ s⁻¹,B2
3.5 nM,0.0014 s⁻¹,400000 M⁻¹ s⁻¹,B4
5.1 nM,0.00289 s⁻¹,567000 M⁻¹ s⁻¹,B5
3.5 nM,0.000455 s⁻¹,128000 M⁻¹ s⁻¹,B6
2.3 nM,0.00161 s⁻¹,705000 M⁻¹ s⁻¹,B7
